Experimental data reported in the supplement of paper PMC5998384.

Assays:
[1] = tested on: HeLa Kyoto; test: solubility change mitosis vs G1/S (difference of NP-40 vs SDS log2 ratios) (log2 ratio difference); higher = more soluble in mitosis
[2] = tested on: HeLa Kyoto; test: thermal stability score vs G1/S (z-score of summed log2 fold changes over temperatures); higher = more thermally stable than in G1/S
[3] = tested on: HeLa Kyoto; test: melting temperature (median over replicates), in situ; higher = more thermally stable
[4] = tested on: HeLa Kyoto; test: solubility in G1/S (NP-40 vs SDS abundance) (log2 ratio); higher = more soluble; settings: cell cycle stage: G1/S
[5] = cell cycle stage: early G1 (4.5 h after nocodazole release)
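Wherever melting temperature (median over replicates), in situ is given: HeLa Kyoto cells synchronized by double thymidine or nocodazole block, proteins quantified by TMT10plex mass spectrometry, three independent biological replicates.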
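Wherever solubility change mitosis vs G1/S (difference of NP-40 vs SDS log2 ratios) is given: synchronized HeLa Kyoto cells (double thymidine block for G1/S, nocodazole release for mitosis), protein amounts in NP-40 versus SDS lysates quantified by mass spectrometry, three biological replicates.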
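Wherever solubility in G1/S (NP-40 vs SDS abundance) is given: HeLa Kyoto cells arrested at G1/S by double thymidine block, proteins quantified by TMT10plex mass spectrometry in mild NP-40 versus SDS extracts, three biological replicates.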
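Wherever thermal stability score vs G1/S (z-score of summed log2 fold changes over temperatures) is given: synchronized HeLa Kyoto cells, proteins quantified by TMT10plex mass spectrometry, three biological replicates, mitosis taken 0.5 h after nocodazole release, G1/S directly after double thymidine block.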

Row | Sequence | solubility change mitosis (log2) [1] | thermal stability score [2, 5] | thermal stability score ([2]; cell cycle stage: mitosis) | melting temperature ([3]; cell cycle stage: G1/S) | melting temperature ([3]; cell cycle stage: mitosis) | solubility in G1/S (log2) [4]
1 | MESVSCSAAAVRTGDMESQRDLSLVPERLQRREQERQLEVERRKQKRQNQEVEKENSHFFVATFVRERAAVEELLERAESVERLEEAASRLQGLQKLINDSVFFLAAYDLRQGQEALARLQAALAERRRGLQPKKRFAFKTRGKDAASSTKVDAAPGIPPAVESIQDSPLPKKAEGDLGPSWVCGFSNLESQVLEKRASELHQRDVLLTELSNCTVRLYGNPNTLRLTKAHSCKLLCGPVSTSVFLEDCSDCVLAVACQQLRIHSTKDTRIFLQVTSRAIVEDCSGIQFAPYTWSYPEIDKDFESSGLDRSKNNWNDVDDFNWLARDMASPNWSILPEEERNIQWD [TBCC] | -0.152 | 0.786 | 0.503 | 51.8 °C | 52.4 °C | 0.242
2 | MESYDIIANQPVVIDNGSGVIKAGFAGDQIPKYCFPNYVGRPKHMRVMAGALEGDLFIGPKAEEHRGLLTIRYPMEHGVVRDWNDMERIWQYVYSKDQLQTFSEEHPVLLTEAPLNPSKNREKAAEVFFETFNVPALFISMQAVLSLYATGRTTGVVLDSGDGVTHAVPIYEGFAMPHSIMRVDIAGRDVSRYLRLLLRKEGVDFHTSAEFEVVRTIKERACYLSINPQKDEALETEKVQYTLPDGSTLDVGPARFRAPELLFQPDLVGDESEGLHEVVAFAIHKSDMDLRRTLFANIVLSGGSTLFKGFGDRLLSEVKKLAPKDIKIKISAPQERLYSTWIGGSILASLDTFKKMWVSKKEYEEDGSRAIHRKTF [ACTR1B] | -0.178 | -0.612 | -1.12 | 54 °C | 53.1 °C | -0.021
3 | METAEKECGALGGLFQAIVNDMKSSYPIWEDFNSKATKLHSQLRTTVLAAVAFLDAFQKVADMATNTRGATRDIGSALTRMCMRHRSIETKLRQFTNALLESLINPLQERIEDWKKAANQLDKDHAKEYKRARHEIKKKSSDTLKLQKKARKELLGKGDLQPQLDSALQDVNDMYLLLEETEKQAVRRALIEERGRFCTFITFLQPVVNGELTMLGEITHLQGIIDDLVVLTAEPHKLPPASEQVIKDLKGSDYSWSYQTPPSSPSSSSSRKSSMCSAPSSSSSAKGGGAPWPGGAQTYSPSSTCRYRSLAQPATTTARLSSVSSHDSGFVSQDATYSKPPSPMPSDITSQKSSSSASSEASETCQSVSECSSPTSDWSKVGSHEQPSGATLQRRKDRVELLRDTEPGPASGGTLGPSGEEAPRPRMSPATIAAKHGEEVSPAASDLAMVLTRGLSLEHQKSSRDSLQYSSGYSTQTTTPSCSEDTIPSQGSDYDCYSVNGDADSEGPPEFDKSSTIPRNSNIAQNYRRLIQTKRPASTAGLPTAGLPTATGLPSGAPPGVATIRRTPSTKPTVRRALSSAGPIPIRPPIVPVKTPTVPDSPGYMGPTRAGSEECVFYTDETASPLAPDLAKASPKRLSLPNTAWGSPSPEAAGYPGAGAEDEQQQLAANRHSLVEKLGELVAGAHALGEGQFPFPTALSATPTEETPTPPPAATSDPPAEDMLVAIRRGVRLRRTVTNDRSAPRIL [MTSS1L] | -0.0468 | 0.647 | 0.625 | 53.5 °C | 54.2 °C | 0.191
4 | METLSFPRYNVAEIVIHIRNKILTGADGKNLTKNDLYPNPKPEVLHMIYMRALQIVYGIRLEHFYMMPVNSEVMYPHLMEGFLPFSNLVTHLDSFLPICRVNDFETADILCPKAKRTSRFLSGIINFIHFREACRETYMEFLWQYKSSADKMQQLNAAHQEALMKLERLDSVPVEEQEEFKQLSDGIQELQQSLNQDFHQKTIVLQEGNSQKKSNISEKTKRLNELKLSVVSLKEIQESLKTKIVDSPEKLKNYKEKMKDTVQKLKNARQEVVEKYEIYGDSVDCLPSCQLEVQLYQKKIQDLSDNREKLASILKESLNLEDQIESDESELKKLKTEENSFKRLMIVKKEKLATAQFKINKKHEDVKQYKRTVIEDCNKVQEKRGAVYERVTTINQEIQKIKLGIQQLKDAAEREKLKSQEIFLNLKTALEKYHDGIEKAAEDSYAKIDEKTAELKRKMFKMST [NUF2] | -0.0858 | 0.86 | 1.16 | 48.2 °C | 48.1 °C | -0.0908
5 | METQLQSIFEEVVKTEVIEEAFPGMFMDTPEDEKTKLISCLGAFRQFWGGLSQESHEQCIQWIVKFIHGQHSPKRISFLYDCLAMAVETGLLPPRLVCESLINSDTLEWERTQLWALTFKLVRKIIGGVDYKGVRDLLKVILEKILTIPNTVSSAVVQQLLAAREVIAYILERNACLLPAYFAVTEIRKLYPEGKLPHWLLGNLVSDFVDTFRPTARINSICGRCSLLPVVNNSGAICNSWKLDPATLRFPLKGLLPYDKDLFEPQTALLRYVLEQPYSRDMVCNMLGLNKQHKQRCPVLEDQLVDLVVYAMERSETEEKFDDGGTSQLLWQHLSSQLIFFVLFQFASFPHMVLSLHQKLAGRGLIKGRDHLMWVLLQFISGSIQKNALADFLPVMKLFDLLYPEKEYIPVPDINKPQSTHAFAMTCIWIHLNRKAQNDNSKLQIPIPHSLRLHHEFLQQSLRNKSLQMNDYKIALLCNAYSTNSECFTLPMGALVETIYGNGIMRIPLPGTNCMASGSITPLPMNLLDSLTVHAKMSLIHSIATRVIKLAHAKSSVALAPALVETYSRLLVYMEIESLGIKGFISQLLPTVFKSHAWGILHTLLEMFSYRMHHIQPHYRVQLLSHLHTLAAVAQTNQNQLHLCVESTALRLITALGSSEVQPQFTRFLSDPKTVLSAESEELNRALILTLARATHVTDFFTGSDSIQGTWCKDILQTIMSFTPHNWASHTLSCFPGPLQAFFKQNNVPQESRFNLKKNVEEEYRKWKSMSNENDIITHFSMQGSPPLFLCLLWKMLLETDHINQIGYRVLERIGARALVAHVRTFADFLVYEFSTSAGGQQLNKCIEILNDMVWKYNIVTLDRLILCLAMRSHEGNEAQVCYFIIQLLLLKPNDFRNRVSDFVKENSPEHWLQNDWHTKHMNYHKKYPEKLYFEGLAEQVDPPVQIQSPYLPIYFGNVCLRFLPVFDIVIHRFLELLPVSKSLETLLDHLGGLYKFHDRPVTYLYNTLHYYEMHLRDRAFLKRKLVHAIIGSLKDNRPQGWCLSDTYLKCAMNAREENPWVPDDTYYCRLIGRLVDTMAGKSPGPFPNCDWRFNEFPNPAAHALHVTCVELMALAVSGKEVGNALLNVVLKSQPLVPRENITAWMNAIGLIITALPEPYWIVLHDRIVSVISSPSLTSETEWVGYPFRLFDFTACHQSYSEMSCSYTLALAHAVWHHSSIGQLSLIPKFLTEVLLPIVKTEFQLLYVYHLVGPFLQRFQQERTRCMIEIGVAFYDMLLNVDQCSTHLNYMDPICDFLYHMKYMFTGDSVKEQVEKIICNLKPALKLRLRFITHISKMEPAAVPPQAMNSGSPAPQSNQVPVSLPVTQ [MED23] | -0.141 | 1.35 | 1.94 | 50.5 °C | 51.1 °C | -0.217
6 | METSAPRAGSQVVATTARHSAAYRADPLRVSSRDKLTEMAASSQGNFEGNFESLDLAEFAKKQPWWRKLFGQESGPSAEKYSVATQLFIGGVTGWCTGFIFQKVGKLAATAVGGGFFLLQLANHTGYIKVDWQRVEKDMKKAKEQLKIRKSNQIPTEVRSKAEEVVSFVKKNVLVTGGFFGGFLLGMAS [FUNDC2] | -0.0574 | -0.847 | -1.68 | 58.2 °C | 55.9 °C | 0.0627
7 | MEVLAAETTSQQERLQAIAEKRKRQAEIENKRRQLEDERRQLQHLKSKALRERWLLEGTPSSASEGDEDLRRQMQDDEQKTRLLEDSVSRLEKEIEVLERGDSAPATAKENAAAPSPVRAPAPSPAKEERKTEVVMNSQQTPVGTPKDKRVSNTPLRTVDGSPMMKAAMYSVEITVEKDKVTGETRVLSSTTLLPRQPLPLGIKVYEDETKVVHAVDGTAENGIHPLSSSEVDELIHKADEVTLSEAGSTAGAAETRGAVEGAARTTPSRREITGVQAQPGEATSGPPGIQPGQEPPVTMIFMGYQNVEDEAETKKVLGLQDTITAELVVIEDAAEPKEPAPPNGSAAEPPTEAASREENQAGPEATTSDPQDLDMKKHRCKCCSIM [PALM] | 0.116 | -0.779 | -1.02 | 55.2 °C | 57 °C | 0.0461
8 | MEVPPPAPRSFLCRALCLFPRVFAAEAVTADSEVLEERQKRLPYVPEPYYPESGWDRLRELFGKDEQQRISKDLANICKTAATAGIIGWVYGGIPAFIHAKQQYIEQSQAEIYHNRFDAVQSAHRAATRGFIRYGWRWGWRTAVFVTIFNTVNTSLNVYRNKDALSHFVIAGAVTGSLFRINVGLRGLVAGGIIGALLGTPVGGLLMAFQKYSGETVQERKQKDRKALHELKLEEWKGRLQVTEHLPEKIESSLQEDEPENDAKKIEALLNLPRNPSVIDKQDKD [TIMMDC1] | 0.01 | -2.95 | -2.24 | 55.6 °C | 55.2 °C | -0.03
